Results: the DeepSol protein solubility set

Experiment: soluble on expression in E. coli; label from the status in PepcDB or PDB records

| Sequence | soluble on expression in E. coli |
| --- | --- |
| MGSDKIHHHHHHMLNQQWLTTFIKLVELGHFTHTAEQLFMTQSGVSQQIKKLEQQAGAPLLNRIGKGFELTQAGMALLAHAQALVQQQAELLASFHQDNAYSGECKLACSGSLAMLIYPKLIDRQLQYPELKMSLEAAPNQRIIDRVLDNSIDVGIITQEFAHPELSLRLLGSQRLCLVLPNVWEGRLPRLIEYNFLTELGMIDHPDGMHYWQHFVECHFPQHLPQASKIKRLSYVNQLSQILLPVAKGLGFAVLPEFAIKQVSARDGVLEGLFRVPDASLSAHVASESLYLIQKRHRPLALRYQEIITLIKGLIS | not soluble |
| GSHMLETEDVVRARDAHLRSILDTVPDATVVSATDGTIVSFNAAAVRQFGYAEEEVIGQNLRILMPEPYRHEHDGYLQRYMATGEKRIIGIDRVVSGQRKDGSTFPMKLAVGEMRSGGERFFTGFIRDLT | soluble |
| MGSDKIHHHHHHMIFSMSSLHDMRFICLRTAPLKNSAYLLSALLIIACQPTSPTEALTSENNEMVDMPLISADSVTITPDHILSIKPTRYQPSLGLQGRIDSIKQINLVAGQPLTVEQVLVSENQWVKKGTPLLTVRRQEIFNKPTMSDDPATDVDASLNTTASNIDRASASDNTSQTSDLITLRARFSGRVENLSVQAGQKIEAQTALLKLSDATELHFISTLPIEAESQISVGQTVNFTAEDRVDKFTGQVSKVQALKQPIQLLVYVNVINNEVSRNQLAPGMQVTGRVDYGQIEVGTIVPKNALHNVDLTQIQVPPYKPLRSLTANIWIIGQDQRLTRQPIEVIEYDPLTKQYLIAGISSDSLICLANLPIESKGKKVVVS | not soluble |
| MGSDKIHHHHHHMTLSEYLQQLTQFKTIEELWRAHVQQMSRYGFDRLLYGYTLFKTRTSLGDPDDFVILTNHCPEYLQGFLADGLYAHAPMLTWALENEGHASWRVSQEMAAQGLLDKQARKVQDFNQSMGVHAGYTISFNSASERFKGAISLAARADLDQDGIDQIWAEHGADIVLMNNVAHLKILTLPYHAPKRGLTKRQREVLQWVGDGKTTQDIALLMGLTPATIEKHLRLARATLSVETTAQAVLKAALHNQMYAVEH | not soluble |
| MSHHNPLVSVVIPSKNRPDLVIATLVSVIDQTYDNIEIIVVDDGSDMPLAPLLKDRFSDRVLCLRNDQSLGGAVARNRGAQSAHGDYITFLDDDDLWLPKKLEMQVDAFSKHGVDIGVVYCGFDFLCKEEIVPRQNKFHNDYDLSIAVLSGCPFGSPTPLIRKHYFDMVGGFDRELPSCQDWDLWIRLSKVCGFYPVKESLALYRVHGDQISTNLRKKIDGRKMVLAKHYDEIKNYPRVLSAHYSRIGSLCVLADEHVEARDFFSKALASNMFDGGSFVHLVLQFLCRPLEKWLIERFSVNTIDGIKVIHLEHHHHHH | not soluble |
| MGSDKIHHHHHHMLFDTSPKDNRKDFFDREKEIEKLKGLRAPITLVLGLRRTGKSSIIKIGINELNLPYIYLDLRKFEERNYISYKDFLLELQKEINKLVKRLPSLLKALKNIQGIVIMGNEIKFNWNRKDRLSFANLLESFEQASKDNVIIVLDEAQELVKLRGVNLLPALAYAYDNLKRIKFIMSGSEMGLLYDYLRVEDPESPLFGRAFSTVELKPFSREEAIEFLRRGFQEADIDFKDYEVVYEKIGGIPGWLTYFGFIYLDNKNLDFAINQTLEYAKKLILKEFENFLHGREIARKRYLNIMRTLSKCGKWSDVKRALELEEGIEISDSEIYNYLTQLTKHSWIIKEGEKYCPSEPLISLAFS | not soluble |
| MQSIGQVLTKASERLEERLAAVLAQYTPAYFRERIPELNELDATDEMIQKAIIQLMDRAKQIEECRGCTGFANCRRPPGQEGMVMHLTVENGHISSLHSMCDQFHAYHQEQRWQRLLALSGKAANDKNFTFDNFPDAQKKRHRKLCGYIYQFAQQFEPGGSDKGVYIYGPPGTGKTHLLLAMVNRLEERRVPVIFIRTDAIFRRMRGMLSAKESLDSLIEAYCTTPVLVIDEFAQEAGTEFTIDVMFEVVNARFANSLPTFATSNYAPDQVYEKAMRKHRLEEKVEAIRSRLNQMMKHAFMDGEDGRKKDRETF | not soluble |
| PHSMEPQVTLNVTFKNEIQSFLVSDPENTTWADIEAMVKVSFDLNTIQIKYLDEENEEVSINSQGEYEEALKMAVKQGNQLQMQVHEGHHVVDEAPPPVVGAKRLAARAGKKPLAHYSSLVRVLGSDMKTPEDPAVQSFPLVPCDTDQPQDKPPDWFTSYLETFREQVVNETVEKLEQKLHEKLVLQNPSLGSCPSEVSMPTSEETLFLPENQFSWHIACNNCQRRIVGVRYQCSLCPSYNICEDCEAGPYGHDTNHVLLKLRRPVVGSSEPFCHSKYSTPRLPAALEQVRLQKQVDKNFLKAEKQRLRAEKKQRKAEVKELKKQLKLHRKIHLWNSIHGLQSPKSPLGRPESLLQSNTLMLPLQPCTSVMPMLSAAFVDENLPDGTHLQPGTKFIKHWRMKNTGNVKWSADTKLKFMWGNLTLASTEKKDVLVPCLKAGHVGVVSVEFIAPALEGTYTSHWRLSHKGQQFGPRVWCSIIVDPFPSEESPDNIEKGMISSSKTDDLTCQQEETFLLAKEERQLGEVTEQTEGTAACIPQKAKNVASERELYIPSVDLLTAQDLLSFELLDINIVQELERVPHNTPVDVTPCMSPLPHDSPLIEKPGLGQIEEENEGAGFKALPDSMVSVKRKAENIASVEEAEEDLSGTQFVCETVIRSLTLDAAPDHNPPCRQKSLQMTFALPEGPLGNEKEEIIHIAEEEAVMEEEEDEEDEEEEDELKDEVQSQSSASSEDYIIILPECFDTSRPLGDSMYSSALSQPGLERGAEGKPGVEAGQEPAEAGERLPGGENQPQEHSISDILTTSQTLETVPLIPEVVELPPSLPRSSPCVHHHGSPGVDLPVTIPEVSSVPDQIRGEPRGSSGLVNSRQKSYDHSRHHHGSSIAGGLVKGALSVAASAYKALFAGPPVTAQPIISEDQTAALMAHLFEMGFCDRQLNLRLLKKHNYNILQVVTELLQLNNNDWYSQRY | soluble |
| MSLARELRKGKSNAIGMLFGDPSSGFQSRLHHAALQACNDAGYFLTAGLFREEEDNWDEQLTQFLNRTSIEKMILVPPLCGSTALHDRLIEQGASFVLVSPSRAVAVAHAVCMDDRRAAREITEHLLGLGHRRIAHITGPSDHAATRLRREGFEDAMRAVGDGALRPDWIRPGLFRFKPALECARQILTGPDRPTAIFAANDEMAAAVCFAANSLGLRVPDDLSVVGFDDVAIATTMWPPLTTVAQPYAQMARESVRLLTEVGPPGDAGQAAEKVTIDHALKVRQSTAAEGHHHHHH | soluble |
| MAVIEAEGLWKIFGGDPERARTLAKEGMSKAEVKEETGSVIAVDDANFEVQEQEIFVVMGLSGSGKSTLLRCVNRLIEPTFGKVHVHDDEVTAFDEDRLRKLRRTKMSMVFQNFGLFPHRTVIGNVEYGLEVAGMDKEKRRGKARQSLELVGLDGYEDSQTSQLSGGMQQRVGLARALVNDPEILLMDEAFSALDPLIRADMQNELLELQEQWDPACTILFITHDLDEALKMGDRIAIMKDGRIAQIGTPTEILTEPADEYVRSFVENVDRTKIVPARTVMRALGDDETVAADGPSVSPHTPIAELLPALVDADGPLAVRDSGGTLQGVVSQDAVMEEVVQNADGARRRDARAGRTDEDPEAAVALEHHHHHH | soluble |
| ENAFKRRRCGVCEVCQQPECGKCKACKDMVKFGGSGRSKQACQERRCPN | soluble |
| GMDKYLSANSLEGVIDNEFSMPAPRWLNTYPAGPYRFINREFFIIAYETDPDLLQAILPPDMELLEPVVKFEFIRMPDSTGFGDYTESGQVVPVRYKGEEGGFTISMFLDCHAPIAGGREIWGFPKKLAKPKLFVEEDTLIGILKYGSIDIAIATMGYKHRPLDAEKVLESVKKPVFLLKNIPNVDGTPLVNQLTKTYLTDITVKGAWTGPGSLELHPHALAPISNLYIKKIVSVSHFITDLTLPYGKVVADYLA | soluble |
| MGHHHHHHMLENIRDAVRKFLTGSTPYEKAVDEFIKDLQKSLISSDVNVKLVFSLTAKIKERLNKEKPPSVLERKEWFISIVYDELSKLFGGDKEPNVNPTKLPFIIMLVGVQGSGKTTTAGKLAYFYKKRGYKVGLVAADVYRPAAYDQLLQLGNQIGVQVYGEPNNQNPIEIAKKGVDIFVKNKMDIIIVDTAGRHGYGEETKLLEEMKEMYDVLKPDDVILVIDASIGQKAYDLASRFHQASPIGSVIITKMDGTAKGGGALSAVVATGATIKFIGTGEKIDELETFNAKRFVSRILGMGDIESILEKVKGLEEYDKIQKKMEDVMEGKGKLTLRDVYAQIIALRKMGPLSKVLQHIPGLGIMLPTPSEDQLKIGEEKIRRWLAALNSMTYKELENPNIIDKSRMRRIAEGSGLEVEEVRELLEWYNNMNRLLKMVK | soluble |
| MEQLLERIFDELAFLRANMATKDDVAALKDDIRALESRASHIEQTMATKDDIAAMDKRIGQIEQTMATKDDIASIEQRMATKDDVADIPFIKQAVMETLETINEIPAIKQTLAEALRKLDDVIASQARQELVLQSLAFRSLEQENEIRALKAK | not soluble |
| MPEAWAPVRPETPPAPELLYWNAELADELGLDAGQTDKGELARLFSGADIPEGAQPIAQAYAGHQFGGLSPSLGDGRALLLGEVTDRNGQRRDIALKGSGQTPFSRRGDGKAAVGPMLRELIVGEAMQALGIPTTRALAVTTTGEPVYRERPLPGAVLTRVAASHLRVGTFQYFAIRGETAMLNKLADYTIARHYPQLAGRDGRHLALLAAVAERQAALIARWMHAGFIHGVMNTDNMALSGETIDYGPCAFMDAHYPGTVFSSIDHQGRYAYGNQPAIAQWNLARFAETLLPLISPDDPAAAVPAATEIVEGFEDLYQRRWLEQARRKLGLEGERDDDQALADDWLMLLAAHGVDHTLAWRYLADEAEGKGERLAALFPSPDALTPWLKQWHARHVPRTRRPPDIAAAMRRESPLYIPRNHLVEEALDAASERGDMGPTLKLLEALHQPFAERDGLDRYAQPAAAELAEGYRTFCGTLEHHHHHH | not soluble |
| MKKMAFAAIALGLVACAPAQQQRLVYPPTVEVERIQLTSFSLPAPGRAAVAGVRLELNVDNPNPLPVRLVQLAGVLVLDGQEAGTVTVPDIRLPGQGRARQVAQLTLPVTFKTATTFLNIARGQEVSYRLDGTLTADLGPLGQPTFGPFTLTQGVWKQAPLSVF | soluble |
| MGSDKIHHHHHHMQNQKPSVSLIRATSYEREALKNSLVTLLEPFGGMAAFVKPGQRVLLKPNLLTGARPTKECTTRAELVYAVAQMVIAAGGKPFLGDSPAFGSAKGVAIANGYQPLIQELNLPIIDFHGKRYETVSENFNHLLLSKEVIEADVVINLPKVKSHAQLTLTLGVKNLFGCVPGKMKAWWHMEAGKDADRFGEMLVETARAINPDLTILDGIIGHEGNGPSGGEPRALGILAAASDIFALDRAMVEILNVPPHQVPTVAASQRLRVCPELADVEFPNLHPDLLKIYDWQLPDKLMPIDFAMPRVIKSTFKHFYIRFIKEPMSAYGKQ | not soluble |
| MGSDKIHHHHHHGDWLNLNPSTSVTTPQAIRTLEEAQIALNGIYRIAASHSYYGDNYLYYADCRGEDVQARVSKGAGKRVSPYYEFNVTADDALNITRVWNQPYSVIHQANSLLERIESGAVVTDDAVALNCIKAEALALRGLALFDLTRLFAMPYTLNNGTSLGVPIEIKTTLPTHQPARNTVAECYQQVIDDMTGALKLSALSADKKNGYLNVWSVKALLSRVYLYMNDNEKALALAKEVMNNGGLYQLFTHDEYPTVWGKDFSSESLFEFYYTLSEPDGGTGGEGAPMVYADNVKDWNNLVLTKAFLDLLGEDPDDVRHSLNRLPEKPEEDILPEGSKGYPKYLNKYPGKTGDNPQDNDICIIRLSEVYLNAAEAAFKLGGAENLKFSLDCLNAIVSRANPVKSVKETELSLERILKERRKELVGEGHAFFDAMRNGLSVSRTGGWHLPSVAAAAVISPSDPRVALPIPQAEIDANPNMVQNPH | not soluble |
